The target in assay [1] is N-terminal 6xHis-tagged HsCPAP^897−1338 (human) (UniProt Q9HC77). In words: SEC + other: negative-stain electron microscopy (single particle, 3D map); SEC (Superdex 200 10/300) peak fraction at an apparent MW of ~208 kDa, buffer H-300 (300 mM NaCl), 4°C; barrel-like particles, 23 Å map; putative tetramer (dimer of dimers).
Assay [2] has the same target. In words: SEC + other: negative-stain electron microscopy (single particle, 3D map); SEC (Superdex 200 10/300) fraction at an apparent MW of ~108 kDa, buffer H-300 (300 mM NaCl), 4°C; toroidal particles, 20 Å map from 4,587 particles; monomers to putative dimer.

Regarding “N-terminal 6xHis-tagged HsCPAP^897−1338 (from UniProt Q9HC77 897-1338) (domain or fragment)”, the stoichiometry N in assay [1] was 4; in assay [2], 2.

The record behind these values is article PMC5366329.
